Data reported in patent US20240270821A1, “GIP/GLP1/GCG TRI-RECEPTOR AGONISTS AND USES THEREOF” (priority 2023, published 2024).
Changes are numbered by the printed parent chain.

B1: Example 1027 (peptide)
chain: YXQGTFTSDXSQXLDXKAQXAFIEXLIEGGPSSGEPPPSGSEE
modifications: Aib, 4Pal, αMeL, Orn, Me4Pal, αMeY; lipidated Lys; C-terminal amide; synthetic construct; SITE 2: note = 2-Aminoisobutyric Acid; SITE 10: note = 3-(4-Pyridyl)-L-alanine; SITE 13: note = alpha-methyl-leucine; SITE 16: note = L-ornithine; SITE 17: note = Lysine is chemically modified through conjugation of the epsilon-amino group of the Lysine side chain with (gamma-Gl)
B2: Example 1042 (peptide)
chain: B1 chain with E35A
modifications: not fully specified; non-natural residues; lipidated Lys; C-terminal amide; synthetic construct; SITE 2: note = 2-Aminoisobutyric Acid; SITE 10: note = 3-(4-Pyridyl)-L-alanine; SITE 13: note = alpha-methyl-leucine; SITE 16: note = L-ornithine; SITE 17: note = Lysine is chemically modified through conjugation of the epsilon-amino group of the Lysine side chain with (2-[2-(2-
B3: Example 1049 (peptide)
chain: B1 chain with X10F, Q12X, I27L, E35A, S39G
modifications: Aib, Orn, αMeL, αMeY; acylated Lys; C-terminal amide; synthetic construct; SITE 2: note = 2-Aminoisobutyric Acid; SITE 12: note = L-ornithine; SITE 13: note = alpha-methyl-leucine; SITE 16: note = L-ornithine; SITE 17: note = Lysine is chemically modified through conjugation of the epsilon-amino group of the Lysine side chain with (gamma-Glu)2-CO-(CH2)
B4: Example 1033 (peptide)
chain: B1 chain with X25Y, E28A, E35A
modifications: Aib, 4Pal, Me4Pal, Orn, alpha-methyl-Leu, lipidated Lys, amide; synthetic construct; SITE 2: note = 2-Aminoisobutyric Acid; SITE 10: note = 3-(4-Pyridyl)-L-alanine; SITE 13: note = alpha-methyl-leucine; SITE 16: note = L-ornithine; SITE 17: note = Lysine is chemically modified through conjugation of the epsilon-amino group of the Lysine side chain with (Glu)2-(g)
B5: Example 1029 (peptide)
chain: B1 chain with X16K, X25Y, E28A, E35A
modifications: non-natural residues; AEEA-γGlu-C18 diacid on Lys; amide; synthetic construct; SITE 2: note = 2-Aminoisobutyric Acid; SITE 10: note = 3-(4-Pyridyl)-L-alanine; SITE 13: note = alpha-methyl-leucine; SITE 17: note = Lysine is chemically modified through conjugation of the epsilon-amino group of the Lysine side chain with (2-[2-(2-Amino-ethoxy)-ethoxy]-acetyl)
B6: Example 1037 (peptide)
chain: B1 chain with X16K, X25Y, I27L, E28A, E35A
modifications: AEEA-γGlu-C18 diacid on Lys; non-natural residues; amide; synthetic construct; SITE 2: note = 2-Aminoisobutyric Acid; SITE 10: note = 3-(4-Pyridyl)-L-alanine; SITE 13: note = alpha-methyl-leucine; SITE 17: note = Lysine is chemically modified through conjugation of the epsilon-amino group of the Lysine side chain with (2-[2-(2-Amino-ethoxy)-ethoxy]-acetyl)
B7: Example 1028 (peptide)
chain: B1 chain
modifications: non-natural residues; lysine acylated with C18 diacid; C-terminal amide; synthetic construct; SITE 2: note = 2-Aminoisobutyric Acid; SITE 10: note = 3-(4-Pyridyl)-L-alanine; SITE 13: note = alpha-methyl-leucine; SITE 16: note = L-ornithine; SITE 17: note = Lysine is chemically modified through conjugation of the epsilon-amino group of the Lysine side chain with (gamma-Gl)
B8: Example 1031 (peptide)
chain: B1 chain with X25Y, E28A, E35A
modifications: non-natural residues; C18 diacid-(γ-Glu)2 acyl on Lys; C-terminal amide; synthetic construct; SITE 2: note = 2-Aminoisobutyric Acid; SITE 10: note = 3-(4-Pyridyl)-L-alanine; SITE 13: note = alpha-methyl-leucine; SITE 16: note = L-ornithine; SITE 17: note = Lysine is chemically modified through conjugation of the epsilon-amino group of the Lysine side chain with (gamma-Gl)
B9: Example 1030 (peptide)
chain: B1 chain with X16K, X25Y, E28A, E35A
modifications: synthetic construct; SITE 2: note = 2-Aminoisobutyric Acid; SITE 10: note = 3-(4-Pyridyl)-L-alanine; SITE 13: note = alpha-methyl-leucine; SITE 17: note = Lysine is chemically modified through conjugation of the epsilon-amino group of the Lysine side chain with (Glu)-(gamma-Glu)-CO-(CH2)16-CO2H; SIT
B10: Example 1034 (peptide)
chain: B1 chain with X25Y, E28A, E35A
modifications: non-natural residues; lipidated Lys; C-terminal amide; synthetic construct; SITE 2: note = 2-Aminoisobutyric Acid; SITE 10: note = 3-(4-Pyridyl)-L-alanine; SITE 13: note = alpha-methyl-leucine; SITE 16: note = L-ornithine; SITE 17: note = Lysine is chemically modified through conjugation of the epsilon-amino group of the Lysine side chain with D-Glutami
B11: Example 1044 (peptide)
chain: B1 chain with E35A
modifications: non-natural residues, (γGlu)2-C18 diacid lysine acylation, C-terminal amide; synthetic construct; SITE 2: note = 2-Aminoisobutyric Acid; SITE 10: note = 3-(4-Pyridyl)-L-alanine; SITE 13: note = alpha-methyl-leucine; SITE 16: note = L-ornithine; SITE 17: note = Lysine is chemically modified through conjugation of the epsilon-amino group of the Lysine side chain with (gamma-Gl)
B12: Example 1035 (peptide)
chain: B1 chain with X25Y, E28A, E35A
modifications: non-natural residues; acylated Lys; C-terminal amide; synthetic construct; SITE 2: note = 2-Aminoisobutyric Acid; SITE 10: note = 3-(4-Pyridyl)-L-alanine; SITE 13: note = alpha-methyl-leucine; SITE 16: note = L-ornithine; SITE 17: note = Lysine is chemically modified through conjugation of the epsilon-amino group of the Lysine side chain with (gamma-Gl)

Each binder was assayed against hGLP-1R (Homo sapiens, UniProt P43220) (assay: cell-based or functional assay).
hGLP-1R, sequence (P43220 24-463): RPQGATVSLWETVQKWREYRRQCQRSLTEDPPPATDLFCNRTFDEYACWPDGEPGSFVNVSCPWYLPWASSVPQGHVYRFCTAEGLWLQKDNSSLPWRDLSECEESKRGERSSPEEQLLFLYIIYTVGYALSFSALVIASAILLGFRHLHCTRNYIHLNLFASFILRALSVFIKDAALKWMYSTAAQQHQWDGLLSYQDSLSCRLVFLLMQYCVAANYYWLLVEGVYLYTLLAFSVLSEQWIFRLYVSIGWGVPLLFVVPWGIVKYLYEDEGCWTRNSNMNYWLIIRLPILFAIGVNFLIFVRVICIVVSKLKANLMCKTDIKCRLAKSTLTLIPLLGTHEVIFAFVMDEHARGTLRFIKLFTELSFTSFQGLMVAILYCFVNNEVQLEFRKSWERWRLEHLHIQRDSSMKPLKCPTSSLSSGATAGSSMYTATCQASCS

In order of rising Relative cAMP EC50:
1. B1  1.23 nM
2. B7  1.34 nM
3. B9  1.72 nM
4. B3  2.23 nM

In order of rising cAMP Rel EC50, nM (1% HSA):
1. B8  152 nM
2. B12  167 nM
3. B5  170 nM
4. B4  221 nM
5. B1  252 nM
6. B10  317 nM
7. B9  385 nM
8. B6  625 nM
9. B2  642 nM
10. B7  986 nM
11. B11  1110 nM

B3 showed a cAMP Rel EC50 (1% HSA) of 780 nM.

What follows are binders tested against T1, human GIP receptor (human) (UniProt P48546) (assay: cell-based or functional assay).
T1 sequence (looked up): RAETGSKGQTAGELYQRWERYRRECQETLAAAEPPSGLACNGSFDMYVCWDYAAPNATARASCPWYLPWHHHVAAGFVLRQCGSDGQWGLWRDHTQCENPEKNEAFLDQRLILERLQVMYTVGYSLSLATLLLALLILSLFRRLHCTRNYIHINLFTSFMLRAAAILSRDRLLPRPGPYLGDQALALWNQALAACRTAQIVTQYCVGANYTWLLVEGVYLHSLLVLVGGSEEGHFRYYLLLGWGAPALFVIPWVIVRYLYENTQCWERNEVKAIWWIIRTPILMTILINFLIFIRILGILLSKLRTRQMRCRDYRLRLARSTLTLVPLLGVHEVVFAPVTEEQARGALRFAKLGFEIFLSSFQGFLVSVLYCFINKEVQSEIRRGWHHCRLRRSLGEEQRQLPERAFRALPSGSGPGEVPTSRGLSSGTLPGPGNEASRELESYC

In order of rising Relative cAMP EC50:
1. B9  0.122 nM
2. B7  0.189 nM
3. B1  0.208 nM
4. B3  0.24 nM

In order of falling cAMP Rel EC50, nM (1% HSA):
1. B7  157 nM
2. B11  88.7 nM
3. B2  84.8 nM
4. B1  58.1 nM
5. B4  23.4 nM
6. B10  23 nM
7. B5  22.3 nM
8. B9  21 nM
9. B8  17.3 nM
10. B12  16 nM
11. B6  13.7 nM

B3 gave a cAMP Rel EC50 (1% HSA) of 56.2 nM.

Each binder was assayed against human glucagon receptor (human) (UniProt P47871) (assay: cell-based or functional assay).
human glucagon receptor (human), sequence (P47871 26-477): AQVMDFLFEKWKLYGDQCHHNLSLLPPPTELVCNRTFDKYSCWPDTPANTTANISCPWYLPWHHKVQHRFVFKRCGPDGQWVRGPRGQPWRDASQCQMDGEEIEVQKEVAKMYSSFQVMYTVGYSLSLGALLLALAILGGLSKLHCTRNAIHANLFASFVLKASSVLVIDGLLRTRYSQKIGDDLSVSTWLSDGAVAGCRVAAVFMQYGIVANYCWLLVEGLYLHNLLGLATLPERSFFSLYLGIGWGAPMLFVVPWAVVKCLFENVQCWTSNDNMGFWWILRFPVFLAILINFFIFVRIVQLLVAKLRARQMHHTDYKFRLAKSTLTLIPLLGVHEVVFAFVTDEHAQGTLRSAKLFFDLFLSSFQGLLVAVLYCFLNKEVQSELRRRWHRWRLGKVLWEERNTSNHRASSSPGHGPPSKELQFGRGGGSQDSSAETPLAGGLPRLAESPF

In order of rising Relative cAMP EC50:
1. B1  4.99 nM
2. B7  5.77 nM
3. B3  6.33 nM
4. B9  9.42 nM

In order of rising cAMP Rel EC50, nM (1% HSA):
1. B6  291 nM
2. B5  511 nM
3. B8  1200 nM
4. B12  1380 nM
5. B1  1470 nM
6. B9  1830 nM
7. B2  1890 nM
8. B10  1890 nM
9. B4  2170 nM
10. B11  2410 nM
11. B7  3910 nM

Work on B3 yielded a cAMP Rel EC50 (1% HSA) of 1280 nM.
